Patent publication US20240262910A1

Assays:
[1] = target: mouse CD33 extracellular domain with 6xHis-tag (mouse) (UniProt Q63994); experiment: ELISA, hybridoma supernatant
[2] = target: cynomolgus monkey CD33 extracellular domain with 6xHis-tag (cynomolgus monkey); experiment: ELISA, hybridoma supernatant

mouse CD33 extracellular domain with 6xHis-tag (mouse), sequence (Q63994 other isoform, or with tags, fused parts or gaps limits assumed): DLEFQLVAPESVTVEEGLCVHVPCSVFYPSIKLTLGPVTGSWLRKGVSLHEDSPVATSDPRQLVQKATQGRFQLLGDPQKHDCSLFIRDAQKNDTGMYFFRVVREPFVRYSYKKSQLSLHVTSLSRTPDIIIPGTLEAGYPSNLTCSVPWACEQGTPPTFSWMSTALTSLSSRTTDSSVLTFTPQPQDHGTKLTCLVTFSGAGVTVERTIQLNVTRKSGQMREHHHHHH

Row | Binder | RLU [1] | RLU [2]
1 | 3-P14 (hybridoma antibody) (antibody, V domains shown) VH: EVQLLESGGGLVQPGGSLRLSCAASGFTFSTYAMSWVRQAPGKGLEWVSAISGRGGSTYYTDSVKGRFTISRDNSKNTVSLQMNSLRAEDTAVYYCAGRGDYYYYYGMDVWGQGTTVTVSA VL: DIVMTQSPLSSPVTLGQPASFSCRSSQSLVYSDGNTYLSWLQQRPGQPPRLLIYKISNRFSGVPDRFSGSGAGTDFTLKISRVEAEDVGVYYCMQSTQFPHTFGQGTKLEIK | 13700 RLU | 12700 RLU
2 | 1-A20 (antibody, V domains shown) VH: QVQLQESGPGLVKPSETLSLTCTVSGDSISSYYWSWIRQPAGKGLEWIGRIYTSGNTNYNPSLKSRVTMSVDKSKNQFSLKLRSVTAADTAVYYCARDGDNRDSDAFDIWGQGTMVTVSS VL: SPGTLSLSPGERATLSCRASQNISSSYLAWCQQKPGQAPRLFIYGTSRRATGIPDRFSGSGSGTDFTLTISRLEPEDFAVYYCQQYGSSPLTFGGGTKVEIK |  | 35500 RLU
3 | 1-H19 (antibody, V domains shown) VH: QVQLQESGPGLVKPSETLSLTCTVSGGSISTYYWSWIRQPAGKGLEWIGRIYTSGNTNYNPSLKSRVTMSVDTSKNQLSLKLRSVTAADTAVYYCARDGDNRNSDAFDIWGQGTMVTVSS VL: QSVLTQPPSVSGAPGQRVTISCTGSSSNIGAGYDVHWYQQLPGTAPKLLIYGNSNRPSGVPDRFSGSKSGTSASLAITGLQAEDEADYYCQSYDRSLSGWVFGGGTKLTVL |  | 22500 RLU
